Results from patent US20200283521A1 (GRANULAR THERAPEUTICS, published 2020).

Legend:
Experiment in all cases: direct ELISA on coated protein, IgG1
hLTBR-Fc = target: T1, hLTBR-Fc (human, UniProt P36941)
T1 construct: Fc fusion; member of the panel m9

hDR6-Fc = target: T2, hDR6-Fc (human, UniProt O75509)
T2 construct: Fc fusion; member of the panel m9
T2 sequence (looked up): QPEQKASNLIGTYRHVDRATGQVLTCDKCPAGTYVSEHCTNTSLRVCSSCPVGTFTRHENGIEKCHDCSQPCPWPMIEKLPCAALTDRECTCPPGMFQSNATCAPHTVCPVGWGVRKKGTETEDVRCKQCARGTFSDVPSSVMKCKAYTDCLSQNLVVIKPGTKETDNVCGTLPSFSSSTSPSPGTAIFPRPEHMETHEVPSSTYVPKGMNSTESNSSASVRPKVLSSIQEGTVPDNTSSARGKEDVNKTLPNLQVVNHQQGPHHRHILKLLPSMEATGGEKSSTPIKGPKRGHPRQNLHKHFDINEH

hVCAM-1 = target: T3, hVCAM-1 (human, UniProt P19320)
T3 construct: purified recombinant protein; member of the panel m9
T3 sequence (looked up): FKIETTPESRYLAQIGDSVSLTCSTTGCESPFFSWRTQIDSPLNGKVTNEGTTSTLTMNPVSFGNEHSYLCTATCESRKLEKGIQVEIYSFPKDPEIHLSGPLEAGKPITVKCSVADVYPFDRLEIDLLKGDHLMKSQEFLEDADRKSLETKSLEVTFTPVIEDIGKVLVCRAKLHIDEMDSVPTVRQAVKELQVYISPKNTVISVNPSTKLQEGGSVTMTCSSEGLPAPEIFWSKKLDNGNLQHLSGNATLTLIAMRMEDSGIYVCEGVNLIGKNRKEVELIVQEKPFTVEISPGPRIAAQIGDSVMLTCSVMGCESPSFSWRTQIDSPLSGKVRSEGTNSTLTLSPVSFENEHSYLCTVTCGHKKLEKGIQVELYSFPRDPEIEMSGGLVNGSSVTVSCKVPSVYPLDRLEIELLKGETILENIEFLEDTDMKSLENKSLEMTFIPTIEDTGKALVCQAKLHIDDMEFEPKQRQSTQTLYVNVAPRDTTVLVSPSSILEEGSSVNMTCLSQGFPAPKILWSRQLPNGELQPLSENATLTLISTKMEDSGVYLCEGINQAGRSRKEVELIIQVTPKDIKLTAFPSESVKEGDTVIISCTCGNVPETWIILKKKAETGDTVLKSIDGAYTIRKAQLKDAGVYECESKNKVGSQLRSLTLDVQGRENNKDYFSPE

hEpCAM-Fc = target: T4, hEpCAM-Fc (human, UniProt P16422)
T4 construct: Fc fusion; member of the panel m9
T4 sequence (looked up): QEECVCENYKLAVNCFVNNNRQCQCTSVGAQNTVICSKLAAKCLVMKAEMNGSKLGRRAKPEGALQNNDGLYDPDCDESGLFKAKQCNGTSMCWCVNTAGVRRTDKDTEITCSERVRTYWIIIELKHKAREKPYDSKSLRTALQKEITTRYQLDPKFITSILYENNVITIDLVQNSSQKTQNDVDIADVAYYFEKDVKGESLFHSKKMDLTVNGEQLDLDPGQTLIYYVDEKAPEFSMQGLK

hDR3-Fc = target: T5, hDR3-Fc (human, UniProt Q93038)
T5 construct: Fc fusion; member of the panel m9
T5 sequence (looked up): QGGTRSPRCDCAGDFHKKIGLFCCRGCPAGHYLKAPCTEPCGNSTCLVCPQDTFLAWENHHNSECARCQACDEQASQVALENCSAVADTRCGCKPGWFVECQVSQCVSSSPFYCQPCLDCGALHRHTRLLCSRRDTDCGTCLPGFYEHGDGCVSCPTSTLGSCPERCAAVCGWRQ

h4-1BB-Fc = target: T6, h4-1BB-Fc
T6 construct: member of the panel m9
T6 sequence (chain, as listed by the source limits assumed): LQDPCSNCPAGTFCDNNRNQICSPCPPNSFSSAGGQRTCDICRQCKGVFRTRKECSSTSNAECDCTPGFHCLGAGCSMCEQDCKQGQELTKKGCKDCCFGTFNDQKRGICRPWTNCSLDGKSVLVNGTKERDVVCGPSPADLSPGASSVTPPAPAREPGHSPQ

hBAFFR-Fc = target: T7, hBAFFR-Fc (human, UniProt Q96RJ3)
T7 construct: Fc fusion; member of the panel m9
T7 sequence (Q96RJ3 7-71 limits assumed): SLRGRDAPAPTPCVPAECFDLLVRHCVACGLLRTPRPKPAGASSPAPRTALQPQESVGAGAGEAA

hVCAM-Fc = target: T8, hVCAM-Fc
T8 construct: member of the panel m9
T8 chain: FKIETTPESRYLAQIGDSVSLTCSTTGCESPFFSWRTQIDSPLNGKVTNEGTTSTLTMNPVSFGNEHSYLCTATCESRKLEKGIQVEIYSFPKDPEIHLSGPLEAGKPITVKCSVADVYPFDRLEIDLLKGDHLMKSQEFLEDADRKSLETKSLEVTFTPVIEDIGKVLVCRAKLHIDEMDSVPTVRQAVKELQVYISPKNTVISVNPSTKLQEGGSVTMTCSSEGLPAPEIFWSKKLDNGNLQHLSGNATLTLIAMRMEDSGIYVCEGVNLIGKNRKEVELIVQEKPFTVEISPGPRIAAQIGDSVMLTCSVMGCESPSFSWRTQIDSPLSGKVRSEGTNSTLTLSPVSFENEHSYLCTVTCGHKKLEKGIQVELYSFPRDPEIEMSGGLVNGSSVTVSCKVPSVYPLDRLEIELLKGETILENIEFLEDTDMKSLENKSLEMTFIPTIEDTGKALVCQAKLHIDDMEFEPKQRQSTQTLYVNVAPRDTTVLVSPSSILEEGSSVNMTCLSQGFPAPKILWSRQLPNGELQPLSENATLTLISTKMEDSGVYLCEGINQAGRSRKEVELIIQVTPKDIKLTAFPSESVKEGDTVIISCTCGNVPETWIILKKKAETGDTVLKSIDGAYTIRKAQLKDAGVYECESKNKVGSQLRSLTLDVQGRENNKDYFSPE

hCD4 = target: T9, hCD4 (human, UniProt P01730)
T9 construct: purified recombinant protein; member of the panel m9

hTWEAK-Fc = target: T10, hTWEAK-Fc (human, UniProt O43508)
T10 construct: Fc fusion; member of the panel m9
T10 sequence (looked up): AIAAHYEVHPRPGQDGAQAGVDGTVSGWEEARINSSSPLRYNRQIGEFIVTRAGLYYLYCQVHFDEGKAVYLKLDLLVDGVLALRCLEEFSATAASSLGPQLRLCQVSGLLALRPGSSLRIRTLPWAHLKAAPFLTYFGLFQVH

hOX40-Fc = target: T11, hOX40-Fc
T11 construct: member of the panel m9
T11 chain: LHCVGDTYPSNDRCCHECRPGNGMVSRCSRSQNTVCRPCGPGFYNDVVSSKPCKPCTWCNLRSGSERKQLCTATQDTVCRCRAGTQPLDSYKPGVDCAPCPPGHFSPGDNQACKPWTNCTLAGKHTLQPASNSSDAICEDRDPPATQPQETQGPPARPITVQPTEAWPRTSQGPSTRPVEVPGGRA

hICAM-1-Fc = target: T12, hICAM-1-Fc (human, UniProt P05362)
T12 construct: Fc fusion; member of the panel m9
T12 sequence (P05362 28-480 limits assumed): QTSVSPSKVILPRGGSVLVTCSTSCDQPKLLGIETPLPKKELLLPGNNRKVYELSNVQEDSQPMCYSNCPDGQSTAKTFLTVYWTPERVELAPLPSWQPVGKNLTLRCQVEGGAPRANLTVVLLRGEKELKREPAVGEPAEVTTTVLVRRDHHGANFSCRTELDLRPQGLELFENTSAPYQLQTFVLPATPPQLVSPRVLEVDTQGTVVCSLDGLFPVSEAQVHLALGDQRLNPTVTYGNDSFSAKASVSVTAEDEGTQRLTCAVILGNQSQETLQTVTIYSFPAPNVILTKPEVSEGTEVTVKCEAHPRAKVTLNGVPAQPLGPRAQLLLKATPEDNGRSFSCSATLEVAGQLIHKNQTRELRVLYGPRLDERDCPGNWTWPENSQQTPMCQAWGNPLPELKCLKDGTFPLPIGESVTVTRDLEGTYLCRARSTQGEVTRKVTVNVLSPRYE

T1 sequence (P36941 28-227 limits assumed): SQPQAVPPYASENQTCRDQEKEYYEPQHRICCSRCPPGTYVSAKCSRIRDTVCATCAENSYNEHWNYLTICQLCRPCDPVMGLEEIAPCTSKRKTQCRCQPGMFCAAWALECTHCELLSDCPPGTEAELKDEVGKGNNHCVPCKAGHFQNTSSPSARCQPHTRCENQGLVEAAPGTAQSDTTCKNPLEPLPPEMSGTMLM

binding result (hLTBR-Fc): no binding (tested: 1 µg/ml)
binding result (hDR6-Fc): no binding (tested: 1 µg/ml)
binding result (hVCAM-1): no binding (tested: 1 µg/ml)
binding result (hEpCAM-Fc): no binding (tested: 1 µg/ml)
binding result (hDR3-Fc): no binding (tested: 1 µg/ml)
binding result (h4-1BB-Fc): no binding (tested: 1 µg/ml)
binding result (hBAFFR-Fc): no binding (tested: 1 µg/ml)
binding result (hVCAM-Fc): no binding (tested: 1 µg/ml)
binding result (hCD4): no binding (tested: 1 µg/ml)
binding result (hTWEAK-Fc): no binding (tested: 1 µg/ml)
binding result (hOX40-Fc): no binding (tested: 1 µg/ml)
binding result (hICAM-1-Fc): no binding (tested: 1 µg/ml)
B1: MH5, human IgG1 (antibody, V domains shown)
VH: QVQLVQSGAEVKKPGASVKVSCKASGYTFTDYYMNWVRQAPGQGLEWMGRIYPGSGNTYYAQKFQGRVTMTRDTSTSTVYMELSSLRSEDTAVYYCARGVYYYDYWGQGTLVTVSS
VL: DIQMTQSPSSLSASVGDRVTITCRASQGIRTNLAWFQQKPGKAPKSLIYSASSLQSGVPSRFSGSGSGTDFTLTISSLQPEDFATYYCQQYANYPRTFGGGTKVEIK
notes: IgG1; also called C-KIT-MH5; C-KIT-MHS
